Data reported in patent publication US20100047253A1 (Amgen, published 2010).
Residue numbers refer to the chain shown, from its start. Several values for one entry are separate records, joined by “and”; a condition that tells them apart may be missing. Identical values can stand only once. Values belong to the binder of their own block, whether it stands above or below them.

What was measured:
[1] = target: T1, human IL-13 (source not stated for the assay) (human, UniProt P35225 35-146, limits assumed); test: cell-based or functional assay
mouse IL-13 = target: T2, mouse IL-13 (mouse, UniProt P20109 22-131, limits assumed); test: epitope mapping with mouse IL-13 chimeric molecules (ELISA)
T2 construct: also called murine IL-13
T2 sequence (looked up): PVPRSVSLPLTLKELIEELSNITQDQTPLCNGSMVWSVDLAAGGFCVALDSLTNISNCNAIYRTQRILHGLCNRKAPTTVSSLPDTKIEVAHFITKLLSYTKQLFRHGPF

[2] = target: T3, Human IL-13-Mouse IL-13 Helix B (human IL-13 with mouse Helix B, UniProt P35225 35-146, limits assumed); test: ELISA on secreted IL-13 chimeric proteins
T3 construct: Expressed and secreted chimeric protein; also called Mo HelixB
T3 chain: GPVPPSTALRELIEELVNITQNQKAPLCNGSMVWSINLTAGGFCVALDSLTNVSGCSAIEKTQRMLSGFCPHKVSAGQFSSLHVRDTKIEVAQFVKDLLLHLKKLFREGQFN

[3] = target: T4, Human IL-13-Mouse IL-13 Helix C (human IL-13 with mouse Helix C, UniProt P35225 35-146, limits assumed); test: ELISA on secreted IL-13 chimeric proteins
T4 construct: Expressed and secreted chimeric protein; also called Mo HelixC
T4 chain: T3 chain with G42M, F43Y, V45A, D48E, T51I, E60Y, K61R, M65I, S67H, F69L

[4] = target: T5, Human IL-13-Mouse IL-13 Helix D (human IL-13 with mouse Helix D); test: ELISA on secreted IL-13 chimeric proteins
T5 construct: Expressed and secreted chimeric protein; also called Mo HelixD
T5 chain: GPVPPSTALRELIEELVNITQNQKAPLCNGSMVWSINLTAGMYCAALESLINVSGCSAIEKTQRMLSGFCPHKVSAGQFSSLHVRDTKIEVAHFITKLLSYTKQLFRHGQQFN

[5] = target: T6, Recombinant Human IL-13 (R & D 213-IL-005) (human, UniProt P35225 35-146); test: SPR (Biacore 2000), mAb captured on goat anti-human surface, IL-13 (R&D) injected, 1:1 model
T6 construct: also called IL-13 antigen (R&D Systems)

693 phage = target: T7, 693 phage; test: Panning of mAb 693 against a 12-mer random peptide library expressed on phage, two rounds
T7 peptide: YKIGEPHKDTYM

marmoset IL-13 = marmoset IL-13 (marmoset, UniProt A0A8I3WT33 35-145); test: KinExA, n-curve analysis
Sequence of marmoset IL-13 (A0A8I3WT33 entry or part of it): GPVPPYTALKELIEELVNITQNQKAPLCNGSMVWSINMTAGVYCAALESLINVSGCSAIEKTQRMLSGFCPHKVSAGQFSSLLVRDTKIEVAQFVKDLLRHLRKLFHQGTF

[6] = target: T1, human IL-13 (source not stated for the …); test: cell-based or functional assay; remark: listed apart in the source
native macaque IL-13 = target: T8, native macaque IL-13 (macaque monkey); test: KinExA, equilibrium in solution
T8 construct: also called macaque monkey IL-13
T8 sequence (Q864V6 19-132): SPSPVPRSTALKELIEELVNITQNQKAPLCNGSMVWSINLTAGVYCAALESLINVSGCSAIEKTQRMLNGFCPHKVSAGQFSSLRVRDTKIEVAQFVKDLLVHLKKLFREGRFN

[7] = target: T9, Human IL-13-rabbit Fc fusion protein (human IL-13 fused to rabbit Fc); test: ELISA on plates coated with IL-13RbFc, detection with rabbit anti Hu IgG Fc HRP (paragraph 267 to paragraph 269)
T9 construct: also called IL-13-RbFc; IL-13 Rb Fc
T9 sequence (chain, as listed by the source limits assumed): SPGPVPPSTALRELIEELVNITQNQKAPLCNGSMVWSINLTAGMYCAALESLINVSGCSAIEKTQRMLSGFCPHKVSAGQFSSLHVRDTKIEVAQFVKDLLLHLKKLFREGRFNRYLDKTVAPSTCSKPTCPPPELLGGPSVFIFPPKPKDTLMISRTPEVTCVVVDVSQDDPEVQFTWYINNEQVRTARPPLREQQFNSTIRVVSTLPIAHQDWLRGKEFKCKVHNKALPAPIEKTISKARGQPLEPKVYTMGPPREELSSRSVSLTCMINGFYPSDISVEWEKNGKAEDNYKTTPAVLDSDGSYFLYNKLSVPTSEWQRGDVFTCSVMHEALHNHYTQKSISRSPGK

[8] = target: T1, human IL-13 (source not stated for the …); test: cell-based or functional assay; remark: listed apart in the source
native human IL-13 [9] = target: T10, native human IL-13 (human, UniProt P35225 35-146, limits assumed); test: KinExA, equilibrium in solution
T10 construct: also called hIL-13

[10] = target: T3, Human IL-13-Mouse IL-13 Helix B; test: ELISA on secreted IL-13 chimeric proteins; '*' denotes that the binding was weak in the sandwich ELISA
native human IL-13 [11] = target: T10, native human IL-13; test: KinExA kinetic, injection method; koff calculated from kon and KD
native human IL-13 [12] = target: T10, native human IL-13; test: KinExA; KD from the equilibrium experiments, printed in the kinetic table (injection method row)
native human IL-13 [13] = target: T10, native human IL-13; test: KinExA kinetic, injection method
native human IL-13 [14] = target: T10, native human IL-13; test: KinExA kinetic, direct method
[15] = target: T6, Recombinant Human IL-13 (R & D …); test: SPR (Biacore 2000) high resolution, mAb captured on goat anti-human Fc pAb, IL-13 (R&D Systems) 12.6-0.394 nM, 23 C, global 1:1 fit
native human IL-13 [16] = target: T10, native human IL-13; test: KinExA kinetic, direct method; koff calculated from kon and KD
native human IL-13 [17] = target: T10, native human IL-13; test: KinExA; KD from the equilibrium experiments, printed in the kinetic table (direct method row); KinExA kinetic, direct method row; KD taken from the equilibrium experiments

IC50, IL-13 induced eotaxin release, Average [1]: 0.176 nM | IC50, IL-13 induced eotaxin release, n = 1 [1]: 0.223 nM | IC50, IL-13 induced eotaxin release, n = 2 [1]: 0.144 nM | IC50, IL-13 induced eotaxin release, n = 3 [1]: 0.16 nM | binding result (mouse IL-13): no binding | binding result [2]: binds | binding result [3]: binds | binding result [4]: no binding
B1: mAb 785 (antibody, V domains shown)
VH: not shown
VL: SYVLTQPPSVSVAPGQTARITCGGNNIGNKIVHWYQQKPGQAPVLVVYDDSDRPSGIPERFSGSNSGNTATLTISRVEAGDEADYYCQVWDSSSDHVVFGGGTKLTVLG

IC50, IL-13 induced eotaxin release, Average [1]: 0.054 nM | IC50, IL-13 induced eotaxin release, n = 1 [1]: 0.038 nM | IC50, IL-13 induced eotaxin release, n = 2 [1]: 0.069 nM | IC50, IL-13 induced eotaxin release, n = 3 [1]: 0.053 nM | Kd [5]: 0.189 nM and 0.109 nM | koff [5]: 0.00038 s⁻¹ and 0.00027 s⁻¹ | kon [5]: 2e+06 M⁻¹ s⁻¹ and 2.5e+06 M⁻¹ s⁻¹ | binding result (mouse IL-13): no binding | binding result [2]: binds | binding result [3]: binds | binding result [4]: no binding | binding result (693 phage): binds
B2: mAb 693 (antibody, V domains shown)
VH: QVQLQESGPGLVKPSETLSLTCSVSGGSISSYYWSWIRQPAGKGLEWIGRIYMTGRTNYNSSLKSRVTMSIDTSKNQLSLKLSFMTAADTAVYYCARESGSSYSYDYWGQGTLVTVSS
VL: SYVLTQPPSVSVAPGQTARITCGGNNIGSKGVHWYQQKPGQAPVLVVYDDSDRPSGIPERFSGSNSGNTATLTISRVEAGDEADYYCQVWVSSSDHHVVFGGGTKLTVV
notes: also called sc693

Kd (marmoset IL-13): < 0.007 nM | IC50, IL-13 induced eotaxin release, Average [1]: 0.016 nM | IC50, IL-13 induced eotaxin release, n = 1 [1]: 0.011 nM | IC50, IL-13 induced eotaxin release, n = 2 [1]: 0.019 nM | IC50, IL-13 induced eotaxin release, n = 3 [1]: 0.017 nM | EC50, HDLM-2 proliferation assay (3H-thymidine) [6]: 0.18 nM | EC50, L-1236 proliferation assay (3H-thymidine) [6]: 0.0052 nM | IC50, IL-13-induced CD23 expression on whole blood B cells (FACS) [6]: 0.87 nM | Kd (native macaque IL-13): 1.6 nM | binding result [7]: binds | IC50, eotaxin production by HDFa cells, 300 pM IL-13 [8]: 28 pM | IC50, eotaxin production by HDFa cells, 600 pM IL-13 [8]: 56 pM | Kd (native human IL-13 [9]): 0.0089 nM | Kd [5]: 0.009 nM | koff [5]: 3.5e-05 s⁻¹ | kon [5]: 3.9e+06 M⁻¹ s⁻¹ | binding result [10]: binds | koff (native human IL-13 [11]): 4.2e-05 s⁻¹ | Kd (native human IL-13 [12]): 0.0089 nM | binding result (mouse IL-13): no binding | kon (native human IL-13 [13]): 4.7e+06 M⁻¹ s⁻¹ | binding result [3]: no binding
B3: mAb 731 (antibody, V domains shown)
VH: EVQLLESGGGLVQPGGSLRLSCAASGFTFSSYAMSWVRQAPGKGLEWVSAFSGSGGSTYYADSVKGRFTISRDNSKNTLYLQMNSLRAEDTAVYYCVQDGLGPYFYNYGMDVWGQGTTVTVSS
VL: SYELTQPPSVSVSPGQTASITCSGDKLGDKYACWFQQKPGQSPVLVIYHDSKRPSGIPERFSGSNSGDTATLTISGTQAMDEADYYCQAWDSSTYVFGTGTKVTVLG
notes: also called sc731

Kd (marmoset IL-13): 0.403 nM | IC50, IL-13 induced eotaxin release, Average [1]: 0.036 nM | IC50, IL-13 induced eotaxin release, n = 1 [1]: 0.031 nM | IC50, IL-13 induced eotaxin release, n = 2 [1]: 0.04 nM | IC50, IL-13 induced eotaxin release, n = 3 [1]: 0.035 nM | EC50, HDLM-2 proliferation assay (3H-thymidine) [6]: 4.5 nM | EC50, L-1236 proliferation assay (3H-thymidine) [6]: 0.39 nM | IC50, IL-13-induced CD23 expression on whole blood B cells (FACS) [6]: 6.2 nM | Kd (native macaque IL-13): 0.037 nM | kon (native human IL-13 [14]): 1.1e+07 M⁻¹ s⁻¹ | binding result [7]: binds | IC50, eotaxin production by HDFa cells, 300 pM IL-13 [8]: 56 pM | IC50, eotaxin production by HDFa cells, 600 pM IL-13 [8]: 113 pM | Kd [15]: 0.034 nM | kon [15]: 7.3e+06 M⁻¹ s⁻¹ | Kd (native human IL-13 [9]): 0.024 nM | Kd [5]: 0.052 nM | koff [5]: 0.00025 s⁻¹ | kon [5]: 4.9e+06 M⁻¹ s⁻¹ | koff (native human IL-13 [16]): 0.00027 s⁻¹ | koff (native human IL-13 [11]): 0.00036 s⁻¹ | Kd (native human IL-13 [17]): 0.024 nM | Kd (native human IL-13 [12]): 0.024 nM | binding result (mouse IL-13): no binding | kon (native human IL-13 [13]): 1.5e+07 M⁻¹ s⁻¹ | binding result [2]: binds | binding result [3]: binds
B4: mAb 623 (antibody, V domains shown)
VH: EVQLVESGGGLVKPGGSLRLSCAASGFTFSNAWMSWVRQAPGKGLEWVGRIRSEIDGGTTNYAAPVKGRFTISRDDSKNTLYLQMNSLKTEDTAVYYCATDQVGAYYGDYYGMDVWGQGTTVTVSS
VL: SYELTQPPSVSVSPGQTARITCSGDALPEKYAYWYQQKSGQAPVLVIYEDSKRPSGIPERFSGSSSGTMATLTISGAQVEDEADYYCHSTDSSGNHGVFGGGTKLTVLG
notes: also called sc623
